Patent publication US20240026019A1 (Innovent, published 2024)

T1: human TNFR2 overexpressed on CHO-S cells (CHOS-hTNFR2) (human, UniProt P20333 23-461)
T1 construct: also called hTNFR2 CHO-S; human TNFR2 molecule overexpressed on CHO-S cells
T1 sequence: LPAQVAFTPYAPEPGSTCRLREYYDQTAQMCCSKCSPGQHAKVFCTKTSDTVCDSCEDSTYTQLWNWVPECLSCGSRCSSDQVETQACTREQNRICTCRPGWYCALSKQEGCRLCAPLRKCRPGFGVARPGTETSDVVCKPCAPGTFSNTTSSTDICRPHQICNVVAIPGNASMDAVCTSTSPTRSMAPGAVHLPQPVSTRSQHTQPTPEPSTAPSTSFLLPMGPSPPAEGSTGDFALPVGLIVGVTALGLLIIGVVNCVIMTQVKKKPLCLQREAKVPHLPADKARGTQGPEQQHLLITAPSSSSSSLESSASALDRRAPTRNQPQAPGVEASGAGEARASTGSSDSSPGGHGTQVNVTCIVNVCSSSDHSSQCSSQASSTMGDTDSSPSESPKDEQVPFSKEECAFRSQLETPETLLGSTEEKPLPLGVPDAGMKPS

T2: hTNFR2 protein (coated on the microplate in the blocking ELISA) (human, UniProt P20333 23-257)
T2 construct: The construct coated in the ELISA is not described (it may or may not be the immunogen, Sino biological 10417-H03H)
T2 sequence (looked up): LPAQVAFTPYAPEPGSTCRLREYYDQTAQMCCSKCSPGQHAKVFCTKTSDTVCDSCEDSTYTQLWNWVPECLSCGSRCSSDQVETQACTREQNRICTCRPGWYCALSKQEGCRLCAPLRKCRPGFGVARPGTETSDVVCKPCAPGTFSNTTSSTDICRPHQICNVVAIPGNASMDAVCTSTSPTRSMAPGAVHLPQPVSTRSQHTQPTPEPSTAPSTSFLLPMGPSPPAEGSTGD

T3: TNFR2 on human K562 chronic myeloid leukemia cells and on primary human Treg cells (human, UniProt P20333 23-461)
T3 construct: whole, on cells; also called K562 cells
T3 sequence (looked up): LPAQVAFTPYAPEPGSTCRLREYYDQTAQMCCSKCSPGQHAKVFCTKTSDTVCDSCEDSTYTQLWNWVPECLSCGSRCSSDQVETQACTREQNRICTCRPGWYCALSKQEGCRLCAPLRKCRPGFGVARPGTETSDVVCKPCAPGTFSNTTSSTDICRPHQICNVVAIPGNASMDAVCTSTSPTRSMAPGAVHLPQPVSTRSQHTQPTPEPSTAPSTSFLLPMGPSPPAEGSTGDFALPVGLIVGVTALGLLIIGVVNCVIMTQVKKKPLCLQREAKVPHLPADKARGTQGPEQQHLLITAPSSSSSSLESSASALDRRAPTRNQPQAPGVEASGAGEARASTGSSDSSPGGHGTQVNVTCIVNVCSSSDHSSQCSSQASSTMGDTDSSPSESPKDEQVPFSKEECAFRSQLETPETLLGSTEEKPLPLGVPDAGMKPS


How the values were obtained:
[1] = target: T1, human TNFR2 overexpressed on CHO-S …; test: flow cytometry on CHO-S cells overexpressing human TNFR2 (hybridoma antibodies), MFI
Protocol: In the study, the binding of the hybridoma antibodies (3C4, 69B1, and 72G8) of the present invention, after being diluted in a gradient, to a stable CHO-S cell strain overexpressing human TNFR2 on the surface was assayed by using a flow cytometer.
CHOS-hTNFR2 cells or CHOS-cTNFR2 cells were counted and diluted to 2×10⁶ cells/mL, and added to a U-bottom 96-well plate at 100 μL/well. The mixture was centrifuged at 300 g for 5 min, and the cell medium was removed. The dilutions of the samples (the hybridoma antibodies 3C4, 69B1, and 72G8 and the positive control antibody OPI) (the antibodies were subjected to a two-fold serial dilution in PBS from the maximum antibody concentration of 300 nM) were added to the U-plate, and the cells were resuspended at 100 μL/well and left to stand on ice for 30 min. The suspension was centrifuged at 400 g for 5 min, and the supernatant was removed. The cells were washed twice with PBS. The mixture was centrifuged at 300 g for 5 min, and PBS was removed. […] The mixture was centrifuged at 400 g for 5 min, and the supernatant was removed. The cells were washed 3 times with PBS. The cells were resuspended in 200 μL of 1×PBS and assayed by FACS.

[2] = target: T2, hTNFR2 protein (coated on the …); test: blocking ELISA: hTNFR2 coated on the plate, binding of biotinylated TNFα blocked by the antibody, Avidin-HRP
Protocol: The ability of the hybridoma antibodies 3C4, 69B1, and 72G8 and the control antibody OPI to block the binding of human TNFα to hTNFR2 was assayed by ELISA.
(§1) The hTNFR2 protein was resuspended and dissolved to a concentration of 2 μg/mL with PBS, and a microplate was coated with the protein and incubated overnight. The plate was blocked with 5% BSA for 1 h, and a biotinylated antigen (Recombinant Biotinylated TNFα protein (ACRO)) was diluted to 3 μg/mL and added to the plate at 20 μL/well. The antibodies prepared as described above (3C4, 69B1, and 72G8) were each diluted in a gradient starting from the maximum concentration of 300 nM for a total of 8 or 12 dilution gradients. The diluted antibodies were added at 200 μL/well and incubated in PBS on ice for 30 min. The antigen-antibody mixture was incubated in a microplate for 90 min and washed three times with PBS, and the supernatant was discarded. 100 μL of Avidin-HRP (Invitrogen) diluted at a 1:5000 ratio was added to each well, incubated at room temperature for 30 min, and washed six times with PBS. A TMB chromogenic solution (solarbio) was added to the plate at 100 μL/well for color development for 1 min, and the reaction was stopped by adding a stop buffer (solarbio) at 100 μL/well. The plate was read on a microplate reader at OD₄₅₀ and OD₆₂₀.

[3] = target: T3, TNFR2 on human K562 chronic myeloid …; test: flow cytometry on human K562 CML cells, MFI(FL2); unit taken from the axis Conc log(nM)
Protocol: (§2) Assay steps: The mixture was centrifuged at 400 g for 5 min, and the cell medium was removed. K562 or Treg cells were resuspended in PBS. After counting, the cells were adjusted to a density of 2×10⁶/mL, and the cell suspension was added to a U-bottom 96-well plate at 100 μL/well. The test antibody was added, subjected to a three-fold gradient dilution, and left to stand on ice for 30 min. The mixture was centrifuged at 300 g for 5 min, and the supernatant was removed. The cells were washed once with PBS. The mixture was centrifuged at 300 g for 5 min, and PBS was removed. 100 μL of PE-anti-human Fc antibody (SOUTHERN BIOTECH, 2040-09) diluted at a ratio of 1:200 was added to each well. The mixture was incubated on ice for 30 min in the dark. The mixture was centrifuged at 400 g for 5 min, and the supernatant was removed. The cells were washed twice with PBS. The cells were resuspended in 100 μL of PBS and assayed by using a flow cytometer (BD, ACCURIC6 plus).

[4] = target: T3, TNFR2 on human K562 chronic myeloid …; test: flow cytometry on primary human Treg cells, MFI(FL2); unit taken from the axis Conc log(nM)
Protocol: Tregs were prepared as follows: Human PBMC cells ([…], PB005F) were thawed, CD4⁺ CD25⁺ CD127^low cells were sorted by flow cytometry, and Treg cells were isolated. According to CD4⁺:anti-CD3/CD28 Beads=1:1, Dynabeads Human T-Activator CD3/CD28 (Gibco, 11131D) was added, followed by 10 ng/mL recombinant IL2, and the cells were stimulated for 7 days.
as §2

[5] = target: T1, human TNFR2 overexpressed on CHO-S …; test: flow cytometry on CHO-S cells overexpressing human TNFR2 (humanized antibodies), MFI-FL2A; unit taken from the axis Conc log(nM)
Protocol: In the study, the binding of the antibodies, after being diluted in a gradient, to a stable CHO-S strain line overexpressing human TNFR2 on the surface was assayed by using a flow cytometer.
CHOS-hTNFR2 cells were counted and diluted to 2×10⁶ cells/mL, and added to a U-bottom 96-well plate at 100 μL/well. The mixture was centrifuged at 300 g for 5 min, and the cell medium was removed. Samples (the humanized antibodies hz3C4.7, hz69B1.5, hz69B1.6, hz69B1.11 and hz69B1.20, the chimeric antibody 69B1, and the positive control antibody OPI) (the antibodies were subjected to a three-fold dilution in PBS from the maximum antibody concentration of 300 nM) were added to the U-plate, and the cells were resuspended at 100 μL/well and left to stand on ice for 30 min. The suspension was centrifuged at 400 g for 5 min, and the supernatant was removed. The cells were washed twice with PBS. The mixture was centrifuged at 300 g for 5 min, and PBS was removed. 100 μL of anti-human Fc PE-labeled secondary antibody (SoutherBiotech; 2040-09) (diluted at a 1:100 ratio in PBS) was added to each well and incubated on ice for 30 min in the dark. The mixture was centrifuged at 400 g for 5 min, and the supernatant was removed. The cells were washed 3 times with PBS. The cells were resuspended in 200 μL of 1×PBS and assayed by FACS.

[6] = target: T2, hTNFR2 protein (coated on the …); test: blocking ELISA: hTNFR2 coated on the plate, binding of biotinylated TNFα blocked by the antibody; unit taken from the axis Conc log(nM) [A]
Protocol: as §1, with “to 2” for “to 3”, “at 10” for “at 20”, “at 100” for “at 200”
In a similar manner to that in Example 7, the ability of the humanized antibodies hz3C4.7, hz69b1.5, hz69b1.6, hz69b1.11, and hz69b1.20, and the control antibody OPI to block the binding of human TNFα to hTNFR2 was assayed by ELISA.

Binder	EC50 (read off the curve) [1] [nM]	IC50 (read off the curve) [2] [nM]	EC50 [3] [nM]	EC50 [4] [nM]	EC50 [5] [nM]	IC50 [6] [nM]
hybridoma antibody 3C4 (antibody, V domains shown, Murine antibody from the hybridoma (detected with anti-mouse IgG)) VH: QVQLQQSGPELVKPGASVTISCKASDYSFTNYYIHWVKQRPGQGLEWIGWIYPGNVITKYHEKFKGKAILTADTSSTTAYMQLNSLTSEDSAVYFCARSRATGYFDYWGQGTTLTVSS VL: DIQMTQTTSSLSASLGDRVTISCRASQDIRNYLNWFQQKPDGTIKLLIYYTSRLHSGVPSRFSGSGSGTDYSLTISNLEQEDMATYFCQQFNTLPWTFGGGTKLEIK	~2	~5				
humanized antibody hz3C4.7 (antibody, human IgG1, kappa, V domains shown) VH: QVQLVQSGAEVKKPGASVKVSCKASDYSFTNYYIHWVRQAPGQGLEWMGWIYPGNVITKYHEKFKGRVTMTADTSTSTAYMELSSLRSEDTAVYYCARSRATGYFDYWGQGTLVTVSS VL: DIQMTQSPSSLSASVGDRVTITCRASQDIRNYLNWYQQKPGKAPKLLIYYTSRLHSGVPSRFSGSGSGTDYTLTISSLQPEDFATYYCQQFNTLPWTFGGGTKVEIKR			0.0356	0.0599	0.207	30
humanized antibody hz69B1.5 (antibody, human IgG1, kappa, V domains shown) VH: QIQLVQSGSELKKPGASVKVSCKASGYTFTDYSMNWVRQAPGQGLEWMGWLNTETGEPIYADDFKGRFVFSLDTSVSTAYLQISSLKAEDTAVYFCAREAIYYGTSYVLDYWGQGTLVTVSS VL: DIVLTQSPASLAVSPGQRATITCRASESVEYYGTNFMQWYQQKPGQPPKLLIYSASNVESGVPARFSGSGSGTDFTLTINPVEANDTANYYCQQSRKDPSTFGQGTKLEIKR			0.0613	0.0239	0.424	
humanized antibody hz69B1.20 (antibody, human IgG1, kappa, V domains shown) VH: QIQLVQSGSELKKPGASVKVSCKASGYTFTDYSMNWVRQAPGQGLEWMGWLNTETGEPIYADDFKGRFVFSLDTSVSTAYLQISSLKAEDTAVYFCAREAIYYGTSYVLDYWGQGTLVTVSS VL: DIVLTQSPASLAVSPGQRATITCRASESVEYYGTNFMQWYQQKPGQPPKLLIYSASNVESGVPARFSGSGSGTDFTLTINPVEAQDTANYFCQQSRKDPSTFGQGTKLEIKR			0.0549	0.0299	0.42	
humanized antibody hz69B1.6 (antibody, human IgG1, kappa, V domains shown) VH: QVQLVQSGAEVKKPGASVKVSCKASGYTFTDYSMNWVRQAPGQRLEWMGWLNTETGEPIYADDFKGRVTITRDTSASTAYMELSSLRSEDTAVYYCAREAIYYGTSYVLDYWGQGTLVTVSS VL: DIVLTQSPASLAVSPGQRATITCRASESVEYYGTNFMQWYQQKPGQPPKLLIYSASNVESGVPARFSGSGSGTDFTLTINPVEANDTANYFCQQSRKDPSTFGQGTKLEIKR					0.357	
humanized antibody hz69B1.11 (antibody, human IgG1, kappa, V domains shown) VH: QVQLVQSGAEVKKPGASVKVSCKASGYTFTDYSMNWVRQAPGQRLEWMGWLNTETGEPIYADDFKGRVTITRDTSASTAYMELSSLRSEDTAVYYCAREAIYYGTSYVLDYWGQGTLVTVSS VL: DIVLTQSPASLAVSPGQRATITCRASESVEYYGTNFMQWYQQKPGQPPKLLIYSASNVESGVPARFSGSGSGTDFTLTINPVEAQDTANYFCQQSRKDPSTFGQGTKLEIKR			0.0446	0.0243	0.36	
